# Measured values as given in US20090130710A1, “Enhancing vegetative protein production in transgenic plants using seed specific promoters” (priority 2005, published 2009).
# T1: α-L-iduronidase (IDUA) activity (Homo sapiens, UniProt P35475)
# T1 construct: arcelin-5-I (ARC5-I) signal peptide of Phaseolus vulgaris (N); made in house; host or cells: transgenic Arabidopsis thaliana T3 seeds (wild type and cgl mutant)
# T1 sequence (P35475 28-653): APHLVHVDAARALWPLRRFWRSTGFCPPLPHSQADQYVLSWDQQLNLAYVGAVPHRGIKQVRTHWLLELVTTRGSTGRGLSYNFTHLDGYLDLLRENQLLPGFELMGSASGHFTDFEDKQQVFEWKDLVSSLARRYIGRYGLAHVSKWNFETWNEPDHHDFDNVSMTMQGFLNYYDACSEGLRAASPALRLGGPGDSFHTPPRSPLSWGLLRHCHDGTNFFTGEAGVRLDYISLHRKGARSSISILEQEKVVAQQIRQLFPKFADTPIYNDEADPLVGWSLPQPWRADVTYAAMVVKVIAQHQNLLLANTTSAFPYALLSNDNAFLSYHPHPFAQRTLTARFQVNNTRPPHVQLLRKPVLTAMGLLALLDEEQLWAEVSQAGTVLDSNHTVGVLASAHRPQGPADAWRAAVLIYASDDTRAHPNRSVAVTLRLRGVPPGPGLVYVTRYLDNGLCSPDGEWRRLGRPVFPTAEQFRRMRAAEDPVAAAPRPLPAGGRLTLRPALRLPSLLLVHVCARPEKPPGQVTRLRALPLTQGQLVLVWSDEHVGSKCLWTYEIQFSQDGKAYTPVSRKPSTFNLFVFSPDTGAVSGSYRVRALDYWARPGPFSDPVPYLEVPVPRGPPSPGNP
# Experiments:
# [1] = test system: tobacco leaves co-expressing Arc-IDUA/ABI3 or Arc-IDUA-KDEL/ABI3; assay: Western blot of α-L-iduronidase protein in tobacco co-transformant leaves; format: cell-based; details: day 6 of incubation; Arc-IDUA/ABI3 and Arc-IDUA-KDEL/ABI3 leaves
# Experimental: FIG. 9. Western blot showing the effects of ABA at different concentrations of the levels of human α-L-iduronidase protein at day 6 of incubation. As with the activity data (FIG. 7), leaves of selected tobacco co-transformants (plants co-expressing constructs a and c [Arc-IDUA/ABI3] and plants co-expressing constructs a and d [Arc-IDUA-KDEL/ABI3]) incubated for 6 days in increasing concentrations of S(+)-ABA, show the maximum α-L-iduronidase protein accumulation levels at 150 μM S(+)-ABA.
# [2] = test system: tobacco leaves co-expressing Arc-IDUA/ABI3 or Arc-IDUA-KDEL/ABI3; assay: Northern blot analysis of α-L-iduronidase mRNA in tobacco co-transformant leaves; format: cell-based; details: 100 μM S(+)-ABA, 6 days, compared to leaves in culture without ABA
# Source text: FIG. 8. ABA acts at the transcriptional level to enhance the levels of human α-L-iduronidase.
# [3] = test system: transgenic tobacco leaves co-expressing construct (a) (the CnABI3 gene) and construct (b) (encoding GUS); assay: GUS activity in transgenic tobacco leaves co-expressing CnABI3 and Vic-GUS; format: cell-based; details: increasing concentration of natural ABA up to 200 μM
# Experimental: FIG. 4. Effect of natural S-(+)-ABA on recombinant bacterial β-glucuronidase (GUS) activities in transgenic tobacco leaves co-expressing construct (a) (the CnABI3 gene) and construct (b) (encoding GUS). […] There is a greater enhancement of GUS activities, with an increasing concentration of natural ABA up to 200 μM.
# Transgenic tobacco plants were also generated by co-expressing the CnABI3 gene (construct a) and a gene construct containing the bacterial GUS gene coding region linked to a seed storage protein gene promoter—the vicilin gene promoter (construct b of FIG. 3) (Jiang et al., 1995).
# (§1) Stably transformed plants were cultured in magenta boxes at 25° C. and sub-cultured every 3 months. Healthy, fully expanded leaves from 4-week plants were used in the present study.
# [4] = test system: transgenic tobacco leaves co-expressing ABI3 and α-L-iduronidase; assay: IDUA activity in leaves of tobacco co-transformants incubated on culture media with ABA or stress chemicals; format: cell-based
# Experimental: FIG. 6. Use of ABA to enhance human α-L-iduronidase activity in plants co-expressing ABI3 and α-L-iduronidase.
# FIG. 10. The effects of different treatments designed to enhance endogenous ABA levels on human α-L-iduronidase activities. Leaves of selected tobacco co-transformants (plants co-expressing constructs a and c [Arc-IDUA/ABI3] and plants co-expressing constructs a and d [Arc-IDUA-KDEL/ABI3]) were incubated for 6 days in media containing the following chemicals: (1) polyethylene glycol, PEG; (2) mM NaCl; (3) mM sucrose; (4) mM mannitol, or the leaves were kept on medium at 4 degrees celsius.
# as §1
# [5] = target: T1, α-L-iduronidase (IDUA) activity; assay: IDUA specific activity after purification from transgenic Arabidopsis seeds (4MU formation); format: biochemical; details: for Units/mg (specific activity): units are nmoles 4MU formed per minute
# Source text: Table 1. Specific activities of Arabidopsis-derived α-L-iduronidase following purification of the recombinant enzyme from T3 seeds using a modified three-column procedure developed for extraction from human liver (Clements et al., 1989).
# [6] = step Ab: combined elution fractions from antibody column
# [7] = step BGel: combined elution fractions from Bio-Gel P100 column
# [8] = step ConA: combined elution fractions from concanavalin A/Sepharose column
# [9] = step Crude: clarified lysate (lipid removed)
Molecule,"Units/mg (specific activity) [5, 6]","Units/mg (specific activity) [5, 7]","Units/mg (specific activity) [5, 8] [Units/mg]","Units/mg (specific activity) [5, 9] [Units/mg]",further results
"CC1=CC(=O)CC(C)(C)[C@@]1(O)/C=C/C(C)=C\C(=O)O [ABA, S-(+)-ABA]",–,–,–,–,"ABA concentration showing maximum α-L-iduronidase protein accumulation levels [1]: 150 µM; effect on steady-state mRNA levels encoding α-L-iduronidase [2]: enhanced steady-state mRNA levels; effect on recombinant GUS activities [3]: enhanced GUS activities; ABA concentration at which α-L-iduronidase activities reach a maximum ([4]; 6 days incubation in increasing concentrations, Arc-IDUA/ABI3 and Arc-IDUA-KDEL/ABI3 leaves): 150 µM; IDUA activities in leaves ([4]; ABA-treated leaves co-expressing ABI3 and IDUA-KDEL, 7 days of incubation): ≤ 16,000 pmol min^−1 mg^−1; enhancement of α-L-iduronidase activity versus transgenic control leaves (no ABA) ([4]; S(+)-ABA at 80 μM, day 7 of incubation, leaves co-expressing constructs a and d (Arc-IDUA-KDEL/ABI3)): ~58 fold"
[Cl-].[Na+] [NaCl],–,–,–,–,"effect on α-L-iduronidase activities of treatments designed to enhance endogenous ABA levels ([4]; 6 days incubation, compared to ABA control (150 μM S(+)-ABA), NaCl 240 mM or 300 mM): dramatic effectiveness in enhancing α-L-iduronidase activities"
"IDUA derived from transgenic WT seeds: recombinant human α-L-iduronidase purified from transgenic Arabidopsis wild-type T3 seeds (protein, UniProt P35475 28-653, looked up, made in Arabidopsis seeds) Alpha-L-iduronidase: APHLVHVDAARALWPLRRFWRSTGFCPPLPHSQADQYVLSWDQQLNLAYVGAVPHRGIKQVRTHWLLELVTTRGSTGRGLSYNFTHLDGYLDLLRENQLLPGFELMGSASGHFTDFEDKQQVFEWKDLVSSLARRYIGRYGLAHVSKWNFETWNEPDHHDFDNVSMTMQGFLNYYDACSEGLRAASPALRLGGPGDSFHTPPRSPLSWGLLRHCHDGTNFFTGEAGVRLDYISLHRKGARSSISILEQEKVVAQQIRQLFPKFADTPIYNDEADPLVGWSLPQPWRADVTYAAMVVKVIAQHQNLLLANTTSAFPYALLSNDNAFLSYHPHPFAQRTLTARFQVNNTRPPHVQLLRKPVLTAMGLLALLDEEQLWAEVSQAGTVLDSNHTVGVLASAHRPQGPADAWRAAVLIYASDDTRAHPNRSVAVTLRLRGVPPGPGLVYVTRYLDNGLCSPDGEWRRLGRPVFPTAEQFRRMRAAEDPVAAAPRPLPAGGRLTLRPALRLPSLLLVHVCARPEKPPGQVTRLRALPLTQGQLVLVWSDEHVGSKCLWTYEIQFSQDGKAYTPVSRKPSTFNLFVFSPDTGAVSGSYRVRALDYWARPGPFSDPVPYLEVPVPRGPPSPGNP","9,033 Units/mg","14,700 Units/mg",29,6.3,"specific activity of the enzyme ([5]; following chromatography on Bio-Gel P-100, purified from T3 seeds): 14,700 nmol 4 MU/min/mg TSP"
"IDUA derived from transgenic cg/mutant seeds: recombinant human α-L-iduronidase purified from transgenic Arabidopsis cgl mutant seeds (N-acetylglucosaminyl transferase I deficient) (protein, UniProt P35475 28-653, looked up, made in Arabidopsis cgl mutant seeds) Alpha-L-iduronidase: APHLVHVDAARALWPLRRFWRSTGFCPPLPHSQADQYVLSWDQQLNLAYVGAVPHRGIKQVRTHWLLELVTTRGSTGRGLSYNFTHLDGYLDLLRENQLLPGFELMGSASGHFTDFEDKQQVFEWKDLVSSLARRYIGRYGLAHVSKWNFETWNEPDHHDFDNVSMTMQGFLNYYDACSEGLRAASPALRLGGPGDSFHTPPRSPLSWGLLRHCHDGTNFFTGEAGVRLDYISLHRKGARSSISILEQEKVVAQQIRQLFPKFADTPIYNDEADPLVGWSLPQPWRADVTYAAMVVKVIAQHQNLLLANTTSAFPYALLSNDNAFLSYHPHPFAQRTLTARFQVNNTRPPHVQLLRKPVLTAMGLLALLDEEQLWAEVSQAGTVLDSNHTVGVLASAHRPQGPADAWRAAVLIYASDDTRAHPNRSVAVTLRLRGVPPGPGLVYVTRYLDNGLCSPDGEWRRLGRPVFPTAEQFRRMRAAEDPVAAAPRPLPAGGRLTLRPALRLPSLLLVHVCARPEKPPGQVTRLRALPLTQGQLVLVWSDEHVGSKCLWTYEIQFSQDGKAYTPVSRKPSTFNLFVFSPDTGAVSGSYRVRALDYWARPGPFSDPVPYLEVPVPRGPPSPGNP","2,700 Units/mg","7,800 Units/mg",8,2.04,–
